Experiment [1] concerns the target T1, human VEGFR-2 immunoglobulin fusion protein (chimeric receptor protein immobilized on the biosensor chip) (human, UniProt P35968 20-764, limits assumed).
T1 construct: also called hVEGFR-2; not shown: immunoglobulin fusion part
Description: BIAcore 2000 biosensor, receptor-Ig amine-coupled to CM5 chip, ligand injected. Background: Surface plasmon resonance follows binding to a sensor surface in real time, without labels.

The target of another experiment is T2, human VEGFR-3-Ig (human, UniProt P35916 25-775).
T2 construct: extracellular domain; also called hVEGFR-3; soluble VEGFR-3; not shown: immunoglobulin fusion part
T2 sequence (looked up): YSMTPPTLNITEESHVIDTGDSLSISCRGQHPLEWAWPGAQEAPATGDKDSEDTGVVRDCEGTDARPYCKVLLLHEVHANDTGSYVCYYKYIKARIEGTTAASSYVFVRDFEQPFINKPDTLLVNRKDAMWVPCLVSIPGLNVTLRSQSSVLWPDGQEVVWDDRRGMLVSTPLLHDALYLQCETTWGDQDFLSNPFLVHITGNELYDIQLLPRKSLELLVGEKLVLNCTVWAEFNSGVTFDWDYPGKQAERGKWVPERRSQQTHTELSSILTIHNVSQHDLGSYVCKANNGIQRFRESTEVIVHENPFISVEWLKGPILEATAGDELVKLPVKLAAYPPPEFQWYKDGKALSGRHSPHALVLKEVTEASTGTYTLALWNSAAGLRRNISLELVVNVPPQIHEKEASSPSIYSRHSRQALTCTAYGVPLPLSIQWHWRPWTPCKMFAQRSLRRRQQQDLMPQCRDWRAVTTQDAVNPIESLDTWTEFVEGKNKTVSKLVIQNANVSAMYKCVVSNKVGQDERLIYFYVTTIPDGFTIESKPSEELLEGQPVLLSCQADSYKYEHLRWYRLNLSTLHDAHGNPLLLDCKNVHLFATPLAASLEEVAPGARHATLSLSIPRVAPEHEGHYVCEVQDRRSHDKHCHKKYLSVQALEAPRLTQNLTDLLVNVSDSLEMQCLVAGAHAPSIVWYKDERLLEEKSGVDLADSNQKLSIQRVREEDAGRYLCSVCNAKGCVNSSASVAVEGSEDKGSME
Description: BIAcore 2000 biosensor, receptor-Ig on CM5 chip, ligand injected, 1:1 Langmuir global fit.

The target in experiment [2] is T1, human VEGFR-2 immunoglobulin fusion …. The description is as above.
Description: (§1) Chimeric receptor proteins were immobilized onto a carboxymethylated dextran surface. Growth factors were injected over the surface at a flow rate of 20 μl/min at the indicated concentrations.
(§2) Following immobilization, residual activated ester groups were blocked by treatment with 1 M ethanolamine hydrochloride pH 8.5 followed by washing with 10 mM diethylamine to remove non-covalently bound material. […] Samples were diluted in running buffer (10 mM HEPES pH 7.4, 150 mM NaCl, 3.4 mM EDTA, 0.005% Tween 20).

As a reminder, the Kd is the equilibrium constant for the complex coming apart. Lower therefore signals higher affinity. Broadly, the koff is the rate constant with which the complex falls apart. Read a high koff as a short-lived complex. One may read the kon as the second-order rate constant of association. Read a low kon as slow association.

T1 sequence (P35968 20-764 limits assumed, change not shown): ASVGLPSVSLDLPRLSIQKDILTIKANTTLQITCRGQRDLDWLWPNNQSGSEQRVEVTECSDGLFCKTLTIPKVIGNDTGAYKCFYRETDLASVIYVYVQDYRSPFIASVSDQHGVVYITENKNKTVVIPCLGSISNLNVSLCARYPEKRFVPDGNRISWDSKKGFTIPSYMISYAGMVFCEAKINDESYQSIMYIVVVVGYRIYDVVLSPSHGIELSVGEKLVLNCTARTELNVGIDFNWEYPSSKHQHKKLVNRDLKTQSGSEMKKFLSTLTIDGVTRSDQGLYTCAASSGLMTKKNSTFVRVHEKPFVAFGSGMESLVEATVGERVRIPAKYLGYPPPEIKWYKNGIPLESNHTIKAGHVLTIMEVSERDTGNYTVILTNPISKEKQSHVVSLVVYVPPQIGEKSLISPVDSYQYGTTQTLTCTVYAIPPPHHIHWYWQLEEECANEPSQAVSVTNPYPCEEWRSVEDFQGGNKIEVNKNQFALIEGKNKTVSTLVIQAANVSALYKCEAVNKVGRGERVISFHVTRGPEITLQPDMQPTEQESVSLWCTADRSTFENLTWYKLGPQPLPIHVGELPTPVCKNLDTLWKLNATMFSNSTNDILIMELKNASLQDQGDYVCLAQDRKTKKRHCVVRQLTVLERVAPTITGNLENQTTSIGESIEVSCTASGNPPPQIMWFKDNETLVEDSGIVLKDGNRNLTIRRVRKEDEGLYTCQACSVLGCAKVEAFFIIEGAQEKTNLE
Description for human VEGFR-3-Ig: as §1, §2

B1: recombinant human VEGF-C156S (Thr103 to Ile225) (ligand)
chain: TEETIKFAAAHYNTEILKSIDNEWRKTQCMPREVCIDVGKEFGVATNTFFKPPSVSVYRCGGCCNSEGLQCMNTSTSYLSKTLFEITVPLSQGPKPVTISFANHTSCRCMSKLDVYRQVHSII
notes: also called hVEGF-C156S; VEGF-C56S
Take B1: the binding result in experiment [1] is “no binding”. Further, in the experiment with human VEGFR-3-Ig, the Kd amounted to 115 nM, the koff is 0.0004 s⁻¹ and the kon was determined as 3500 M⁻¹ s⁻¹.

B2: recombinant human VEGF-C (Thr103 to Leu215) (ligand, UniProt P49767 103-215, looked up)
chain: TEETIKFAAAHYNTEILKSIDNEWRKTQCMPREVCIDVGKEFGVATNTFFKPPCVSVYRCGGCCNSEGLQCMNTSTSYLSKTLFEITVPLSQGPKPVTISFANHTSCRCMSKL
notes: range 103-215; Produced and purified as in Joukov et al. 1997; also called hVEGF-C; wild type VEGF-C
Consider B2, for which, in the experiment with human VEGFR-3-Ig, the Kd was 4.4 nM, the koff stood at 0.000605 s⁻¹ and the on-rate constant (kon) was determined as 136000 M⁻¹ s⁻¹. For the same molecule, in experiment [2], binding was put at a Kd of 22 nM, the koff stood at 0.00123 s⁻¹ and the kon worked out at 55000 M⁻¹ s⁻¹.

The values above are taken from US20060269548A1 (published 2006).
